The supplement of paper PMC9732359
± gives the uncertainty stated by the source.

assay: protein stability index of a GFP-peptide fusion (yeast GPS) (PSI 1-4); higher = more stable; sorted into four equal gates, so the index is relative within each strain; settings: pdr5∆
Summary of the method: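 The protein stability index of a peptide was calculated by multiplying its read frequency in each gate by that gate's number and adding the products. The peptides were tiled 17-residue stretches of yeast proteins, fused downstream of GFP on a Cherry-expressing plasmid and carried in yeast as a pooled library. Mid-log cultures in leucine-free medium were sorted into four equal gates by GFP/Cherry ratio, and each gate's plasmids were PCR-amplified and Illumina-sequenced.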

Row | Sequence | protein stability index
1 | QQKANLLSSSNFEATKK [COR1] | 2.5 ± 0.075
2 | QQNIKFRRDFLLREYDI [YJL039C/NUP192] | 2.57 ± 0.055

same assay, conditions: san1∆

Row | Sequence | protein stability index
3 | PSHYPHPYEYEIDHQEY [RRP6] | 2.17 ± 0.078
4 | PSKKRRRDFGAPANKRP [SMD1] | 3.16 ± 0.12
5 | PSLRDRRERRLIFGTIA [RPT3] | 1.63 ± 0.079
6 | PSQFGMLCTADTPEGEA [RET1] | 2.58 ± 0.22
7 | PSQSEEQKGQMAKKEGT [MED4] | 3.07 ± 0.19
8 | PSRRERRREQTTYSVDD [ISW2] | 3.22 ± 0.17
9 | PSTGGVKKPHRYKPGTV [HHT1] | 1.64 ± 0.097
10 | PSTNKKLSISNAASQQP [GAL11] | 2.56 ± 0.072
11 | PSYAERQSSDESDNYRL [YML031W/NDC1] | 2.75 ± 0.057
12 | PTATPSPFRPLEKTSRI [YMR153W/NUP53] | 2.57 ± 0.11
13 | PTGPKTAIDKNGNITYS [FAS2] | 3 ± 0.059
14 | PTKAAQRARDQDSIDIS [GAL11] | 3.36 ± 0.077
15 | PTLFDLAFNYITYDKQE [SRP68] | 1.77 ± 0.081
16 | PTLVRSVISGNLSLYEA [CSN12] | 3.06 ± 0.068
17 | PTPSVKTEPVGTGLQSY [RPC53] | 3.16 ± 0.1
18 | PTVDEQRQYKVQLLLHI [SNF11] | 1.82 ± 0.12
19 | PVDITMMENYQNISPVY [PRP8] | 2.2 ± 0.071
20 | PVIDTQIANEFNTQQGI [YDL116W/NUP84] | 2.79 ± 0.042
21 | PVKSIRARLKGKEGRIR [RPO21] | 3.33 ± 0.085
22 | PYCPIASITGTGSNDRC [YMR129W/POM152] | 1.56 ± 0.18
23 | PYFEQKIQETELKIRSK [RPT6] | 2.96 ± 0.13
24 | PYGSFHQQQLQQPHYIQ [DSN1] | 2.92 ± 0.044
25 | PYKYRLREEIFIANEGV [RPL2A] | 2.29 ± 0.067
26 | PYMNHKNTSSMDFLNSM [GAL11] | 2.48 ± 0.089
27 | QAGVTKASVTIVFDNTD [SMC2] | 2.73 ± 0.053
28 | QAPTELELQVAQAFVEL [RPS7A] | 2.59 ± 0.047

Row | Sequence | protein stability index
29 | QCIVYPNCLFILKLLNG [SOH1] | 1.27 ± 0.14
30 | QDDDDYVDTATAKRKSR [IRR1] | 2.15 ± 0.083
31 | QDDEYVKDWLYDSRPLE [PRP8] | 3.18 ± 0.13
32 | QDEEQTEHLTELSDNEE [YCG1] | 3.33 ± 0.054
33 | QDNHHITKVTENLFSKE [YMR129W/POM152] | 2.99 ± 0.045
34 | QDPKTLVALLSRDLWCF [SSN2] | 1.31 ± 0.15
35 | QDQYKEGIKVVDIDDPD [SNF2] | 2.13 ± 0.071
36 | QDRLSDLIHKSEAFPSL [SMC4] | 3.07 ± 0.077
37 | QDYYIIGANIYQSPTIF [MED6] | 2.15 ± 0.07
38 | QEFFFHAMGGREGLIDT [RPO21] | 2.39 ± 0.087
39 | QEHTIFTQLKKNIPKTR [SNU114] | 2.64 ± 0.049
40 | QEKESQIQLAESELSLL [SMC4] | 1.89 ± 0.076
41 | QENGTIFRGSLIGCIPY [YDL088C/ASM4] | 2.48 ± 0.061
42 | QEQVQDYVNKTNSHLPA [FAS1] | 2.62 ± 0.11
43 | QESFNSVQNLDQLLTDL [NUT1] | 3.04 ± 0.049
44 | QFEKSRKVSGPRALQPS [RET1] | 2.94 ± 0.061
45 | QFNKILPEPTEGFAADD [FAS1] | 2.91 ± 0.081
46 | QFQRLAPSLTVPPIASP [PRE2] | 1.85 ± 0.055
47 | QGDGLLTKLQKYGAAVR [RPN7] | 3.17 ± 0.12
48 | QGIVRVYSKQATFLLTD [MCD1] | 2.35 ± 0.049
49 | QGKHTKFENDELAESTT [LRP1] | 3.12 ± 0.079
50 | QGNYVTEDIREGDQAEV [YMR129W/POM152] | 3.3 ± 0.066
51 | QGRFRGNLSGKRVDFSG [RPO31] | 2.76 ± 0.1
52 | QGRRLGESIMSEEPTDF [MCD1] | 3.32 ± 0.069
53 | QGRRNSRNFSTRDEETT [SIR4] | 3.12 ± 0.041
54 | QHPFPLAHSQHRCAIRS [SSN2] | 1.51 ± 0.091

Row | Sequence | protein stability index
55 | QHTSFQEAVNSLKGYKI [CSI1] | 3.35 ± 0.048
56 | QIAAQSPVELSRMFEEV [SMC1] | 3.14 ± 0.058
57 | QIDQLNRLLPNLPEEER [GRR1] | 2.05 ± 0.098
58 | QIFVRGSQIKFIVVPDL [SMD3] | 2.05 ± 0.064
59 | QIILAYIKYNILLTSIS [SRP68] | 1.12 ± 0.28
60 | QIILDRFAPDNQVTDSS [SIR3] | 2.94 ± 0.14
61 | QIIVTDGKLEPSTRSNF [YJL039C/NUP192] | 2.88 ± 0.11
62 | QIKTLPEQYSDILLNER [AAR2] | 3.14 ± 0.077
63 | QIMQNPTHYKIPAWFLN [RPS18A] | 1.66 ± 0.084
64 | QIQFTPLIKKIKYEPRF [SMC3] | 2.83 ± 0.09
65 | QIQKNVDLLQFPWLNAI [POP3] | 3.32 ± 0.11
66 | QIRACKDLKHIIYYKFN [PRP8] | 1.84 ± 0.056
67 | QISLNRLIDSMKQYSYL [RRI1] | 2.48 ± 0.17
68 | QITKFPKYRDNLATWYH [SSN3] | 2.7 ± 0.066
69 | QKDKSDTYKRFKYLLGV [ISW2] | 1.4 ± 0.1
70 | QKEEGRSFTKAIEDAKK [YLR335W/NUP2] | 3.05 ± 0.086
71 | QKLLKQLDSDANKLSKS [ISW2] | 2.92 ± 0.047
72 | QKVSQLESADKQLEKRD [POP4] | 3.27 ± 0.07
73 | QKYNLLHVLPTLNSRAL [SNM1] | 1.27 ± 0.18
74 | QKYTKEMIDSHIKEASE [SNF2] | 2.94 ± 0.051
75 | QLAPSSVDPQSSSTQNV [DIS3] | 2.8 ± 0.081
76 | QLEEDENITNKVTEKVL [CSI1] | 3.33 ± 0.057
77 | QLEKKIRFVCLSNCLAN [BRR2] | 1.31 ± 0.099
78 | QLENADTGTLDTKSVVG [RPN2] | 3.08 ± 0.071
79 | QLESIYFRILLPYERHM [SWI1] | 1.68 ± 0.067
80 | QLESYEYMVQYIDEMYN [RRI1] | 3.27 ± 0.14

Row | Sequence | protein stability index
81 | QLGLQTVIRGNSIISLE [SMX2] | 2.47 ± 0.07
82 | QLHFSLLDEEAEQSFDQ [RPO21] | 3.29 ± 0.1
83 | QLIAKNVANVSGSTEKA [SIR3] | 3.1 ± 0.054
84 | QLIPIILRQRGPGFKFV [SRB4] | 1.47 ± 0.19
85 | QLKHTKLALAENDTNMN [SMC4] | 3.25 ± 0.07
86 | QLLTPGSKISSNDLDKF [YGL172W/NUP49] | 3.13 ± 0.1
87 | QLPVGFKNMGNTCYLNA [UBP6] | 1.48 ± 0.12
88 | QLQKILESLKPIDDTMT [MTW1] | 2.69 ± 0.052
89 | QMEDMEESINEFKSIEI [SMC4] | 3.27 ± 0.049
90 | QMIELNRQICLVQKTVQ [GRR1] | 2.5 ± 0.063
91 | QNAAANAEAKGLDATKL [RPL17A] | 1.93 ± 0.25
92 | QNFAEEDDSSNSCFSDG [REC8] | 2.58 ± 0.12
93 | QNMQQSLQQMQHLQQLK [GAL11] | 2.94 ± 0.074
94 | QNSSKIVNVLSKCLNLI [SWI3] | 1.96 ± 0.093
95 | QNSYADKVTSQAVNNLI [RPP1] | 1.68 ± 0.099
96 | QNVNVPSAFNFTGNNST [YOR098C/NUP1] | 2.77 ± 0.037
97 | QPLFSTVPEYLKTADNR [PGD1] | 2.87 ± 0.075
98 | QPQQSTIGGGLFGNKPT [YGR119C/NUP57] | 3.55 ± 0.15
99 | QPSYNSAIIENAFRKEE [GAL11] | 2.74 ± 0.077
100 | QPVNPKPFLKGLVNHRV [SMX3] | 3.16 ± 0.041
101 | QQAQAQAQAQAQAQAQA [GAL11] | 2.92 ± 0.081
102 | QQDQPEQSEQPEQHQDK [RPN10] | 2.83 ± 0.048
103 | QQKANLLSSSNFEATKK [COR1] | 2.1 ± 0.086
